The values that follow come from US20250011363A1, “OPTIMIZED SHORTENED PEPTIDE THAT BINDS TO ACETYLCHOLINE RECEPTOR, AND USE THEREOF” (SKINMED CO., LTD., priority 2021, published 2025).

This assay has as its target acetylcholine receptor (Homo sapiens, UniProt P02708). Description: SPR binding affinity (RU) of optimized 5mer/6mer/7mer peptides, Examples 6-7. Conditions: SPR, Resonance Units; peptides tested at 10 μM; 6mer-2 Top sequence. Summed up:
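SPR, peptides at 10 μM; read-out = response units (RU). Sequences drawn from top- or bottom-frequency amino acid combinations, 5mer/6mer-1/6mer-2 libraries.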

Sequence of acetylcholine receptor (P02708 21-457): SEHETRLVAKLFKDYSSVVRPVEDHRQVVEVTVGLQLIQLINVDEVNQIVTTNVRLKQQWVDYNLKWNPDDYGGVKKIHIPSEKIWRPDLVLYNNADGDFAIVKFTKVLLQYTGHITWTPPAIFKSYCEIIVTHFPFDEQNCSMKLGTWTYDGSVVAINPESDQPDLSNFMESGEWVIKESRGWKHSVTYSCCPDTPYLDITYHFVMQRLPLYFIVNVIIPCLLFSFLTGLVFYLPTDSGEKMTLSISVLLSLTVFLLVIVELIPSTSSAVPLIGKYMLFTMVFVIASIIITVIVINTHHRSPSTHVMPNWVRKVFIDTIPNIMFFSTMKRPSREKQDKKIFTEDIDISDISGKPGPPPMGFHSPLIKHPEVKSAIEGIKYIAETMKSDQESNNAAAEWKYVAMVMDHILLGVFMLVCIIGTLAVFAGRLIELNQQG

On to 6mer-2-510 (KRVLKK), for which the Binding affinity was determined as 146 Ru.

6mer-2-511 (RVFCRR): the Binding affinity is 126 Ru.

On to 6mer-2-512 (RWFTRR), for which the Binding affinity is 148 Ru.

Regarding 6mer-2-513 (RRLTRK), the Binding affinity is recorded as 121 Ru.

As for 6mer-2-514 (KGLQKK), the Binding affinity amounted to 124 Ru.

As for 6mer-2-515 (RWYCRK), the Binding affinity was 123 Ru.

As to 6mer-2-516 (RQQQKK), the Binding affinity is reported as 146 Ru.

Consider 6mer-2-517 (KLRTKK), for which the Binding affinity is 153 Ru.

With 6mer-2-518 (KLVTKK), the Binding affinity turned out to be 151 Ru.

With 6mer-2-519 (KQIQRR), the Binding affinity is given as 135 Ru.

As to 6mer-2-520 (KSYCKR), the Binding affinity was determined as 144 Ru.

With 6mer-2-521 (KQYTRK), the Binding affinity came out at 144 Ru.

Turning to 6mer-2-522 (RVVLRK), the Binding affinity was found to be 124 Ru.

Turning to 6mer-2-523 (RGRYKR), the Binding affinity worked out at 146 Ru.

In the case of 6mer-2-524 (RGIQKR), the Binding affinity turned out to be 128 Ru.

On to 6mer-2-525 (KWVRKK), for which the Binding affinity turned out to be 145 Ru.

As for 6mer-2-526 (RVLLRK), the Binding affinity turned out to be 144 Ru.

Take 6mer-2-527 (RGQTRR): the Binding affinity worked out at 145 Ru.

For 6mer-2-528 (KGFRKK), the Binding affinity worked out at 151 Ru.

Regarding 6mer-2-529 (KQQRKR), the Binding affinity came out at 124 Ru.

With 6mer-2-530 (RSYSKR), the Binding affinity turned out to be 139 Ru.

Consider 6mer-2-531 (KVIYKR), for which the Binding affinity came out at 148 Ru.

Turning to 6mer-2-532 (KSITKR), the Binding affinity is listed as 147 Ru.

Turning to 6mer-2-533 (KRLLKR), the Binding affinity is 142 Ru.

With 6mer-2-534 (RVQLRR), the Binding affinity is reported as 139 Ru.

Turning to 6mer-2-535 (KLFCRR), the Binding affinity came to 133 Ru.

For 6mer-2-536 (RWQRKK), the Binding affinity came to 125 Ru.

For the substance 6mer-2-537 (KVLCKR), the Binding affinity amounted to 153 Ru.

With 6mer-2-538 (KQFCKK), the Binding affinity stood at 125 Ru.

For the substance 6mer-2-539 (KWYTKK), the Binding affinity worked out at 127 Ru.

For the substance 6mer-2-540 (KRLTRR), the Binding affinity worked out at 142 Ru.

On to 6mer-2-541 (KGQCRK), for which the Binding affinity was 126 Ru.

6mer-2-542 (RQIYRR): the Binding affinity is recorded as 148 Ru.

As to 6mer-2-543 (RRQYRR), the Binding affinity is 144 Ru.

With 6mer-2-544 (KVIQKR), the Binding affinity is 147 Ru.

Turning to 6mer-2-545 (KLYCRK), the Binding affinity is given as 125 Ru.

In the case of 6mer-2-546 (RVFTKK), the Binding affinity is listed as 127 Ru.

Turning to 6mer-2-547 (RWQCKR), the Binding affinity is 135 Ru.

On to 6mer-2-548 (RLQCRR), for which the Binding affinity was 142 Ru.

On to 6mer-2-549 (KQLCKK), for which the Binding affinity was determined as 142 Ru.

Regarding 6mer-2-550 (RSFTKK), the Binding affinity worked out at 148 Ru.

As for 6mer-2-551 (KWYTKR), the Binding affinity amounted to 141 Ru.

For the substance 6mer-2-552 (RGLLRR), the Binding affinity was 148 Ru.

Turning to 6mer-2-553 (RSLQKK), the Binding affinity is listed as 124 Ru.

As for 6mer-2-554 (RWRCRR), the Binding affinity worked out at 121 Ru.

With 6mer-2-555 (RSVSKK), the Binding affinity is 154 Ru.

For 6mer-2-556 (RSICKK), the Binding affinity was 148 Ru.

Take 6mer-2-557 (KWVLRK): the Binding affinity was 123 Ru.

As to 6mer-2-558 (KSVCKK), the Binding affinity worked out at 154 Ru.

Consider 6mer-2-559 (KGQLRR), for which the Binding affinity is on record as 121 Ru.

Consider 6mer-2-560 (RQYTRR), for which the Binding affinity turned out to be 153 Ru.

6mer-2-561 (RRVLKK): the Binding affinity came out at 142 Ru.

Consider 6mer-2-562 (RQQRKR), for which the Binding affinity is on record as 136 Ru.

For the substance 6mer-2-563 (KGYQKR), the Binding affinity is reported as 131 Ru.
